The text below walks through data of publication PMC4215538, “A clathrin coat assembly role for the muniscin protein central linker revealed by TALEN-mediated gene editing” (eLife, 2014).

In this experiment the target is T1, AP-2 α appendage (mouse, UniProt P17427 701-938).
T1 construct: AP-2 αC subunit appendage, mouse, residues 701–938; It was added soluble to glutathione-Sepharose pull-downs, so GST was probably removed; also called αC appendage (mouse residues 701–938); purified AP-2 α appendage; source: purified (from the GST-αC appendage construct described previously)
The experiment can be described thus: pull-down; ~200 μg GST fusion on glutathione-Sepharose; rat brain cytosol supplemented with 5 μM or 25 μM purified AP-2 α appendage; recovery of the added α appendage in the pellets. The settings on record: both partners purified.

T1 sequence (P17427 701-938): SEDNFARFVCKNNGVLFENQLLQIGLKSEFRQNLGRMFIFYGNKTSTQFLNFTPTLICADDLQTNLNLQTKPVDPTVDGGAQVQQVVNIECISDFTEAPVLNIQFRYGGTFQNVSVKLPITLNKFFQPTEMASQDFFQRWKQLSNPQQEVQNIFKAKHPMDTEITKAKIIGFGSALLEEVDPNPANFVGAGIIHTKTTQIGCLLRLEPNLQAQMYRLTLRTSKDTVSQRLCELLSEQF

B1: GST-EPS15 (595–740) (domain or fragment, UniProt P42566 595-740, looked up)
chain: SKEEDPFNVDSSSLTGPVADTNLDFFQSDPFVGSDPFKDDPFGKIDPFGGDPFKGSDPFASDCFFRQSTDPFATSSTDPFSAANNSSITSVETLKHNDPFAPGGTVVAASDSATDPFASVFGNESFGGGFADFSTLSKVNNEDPFR
notes: also called GST-EPS15 fusion; C-terminal region of EPS15; source: purified GST fusion (purification described in Umasankar et al., 2012)
Regarding B1, the binding result is on record as “binds”.
